How the values were obtained:
[1] = rescue of surface CD55 in GPAA1-KO cells, flow cytometry; details: glycan lost; control: wild-type GPAA1
[2] = rescue of surface CD55 in PIGT-KO cells, flow cytometry; details: glycan lost; control: wild-type PIGT
[3] = rescue of surface CD55 in PIGS-KO cells, flow cytometry; details: glycan lost; control: wild-type PIGS

B1: GPAA1: N203Q (protein)
parent chain: MGLLSDPVRRRALARLVLRLNAPLCVLSYVAGIAWFLALVFPPLTQRTYMSENAMGSTMVEEQFAGGDRARAFARDFAAHRKKSGALPVAWLERTMRSVGLEVYTQSFSRKLPFPDETHERYMVSGTNVYGILRAPRAASTESLVLTVPCGSDSTNSQAVGLLLALAAHFRGQIYWAKDIVFLVTEHDLLGTEAWLEAYHDVNVTGMQSSPLQGRAGAIQAAVALELSSDVVTSLDVAVEGLNGQLPNLDLLNLFQTFCQKGGLLCTLQGKLQPEDWTSLDGPLQGLQTLLLMVLRQASGRPHGSHGLFLRYRVEALTLRGINSFRQYKYDLVAVGKALEGMFRKLNHLLERLHQSFFLYLLPGLSRFVSIGLYMPAVGFLLLVLGLKALELWMQLHEAGMGLEEPGGAPGPSVPLPPSQGVGLASLVAPLLISQAMGLALYVLPVLGQHVATQHFPVAEAEAVVLTLLAIYAAGLALPHNTHRVVSTQAPDRGWMALKLVALIYLALQLGCIALTNFSLGFLLATTMVPTAALAKPHGPRTLYAALLVLTSPAATLLGSLFLWRELQEAPLSLAEGWQLFLAALAQGVLEHHTYGALLFPLLSLGLYPCWLLFWNVLFWK
[1]
  enzymatic_activity: no change

B2: PIGT: N164Q (protein)
parent chain: MAAAMPLALLVLLLLGPGGWCLAEPPRDSLREELVITPLPSGDVAATFQFRTRWDSELQREGVSHYRLFPKALGQLISKYSLRELHLSFTQGFWRTRYWGPPFLQAPSGAELWVWFQDTVTDVDKSWKELSNVLSGIFCASLNFIDSTNTVTPTASFKPLGLANDTDHYFLRYAVLPREVVCTENLTPWKKLLPCSSKAGLSVLLKADRLFHTSYHSQAVHIRPVCRNARCTSISWELRQTLSVVFDAFITGQGKKDWSLFRMFSRTLTEPCPLASESRVYVDITTYNQDNETLEVHPPPTTTYQDVILGTRKTYAIYDLLDTAMINNSRNLNIQLKWKRPPENEAPPVPFLHAQRYVSGYGLQKGELSTLLYNTHPYRAFPVLLLDTVPWYLRLYVHTLTITSKGKENKPSYIHYQPAQDRLQPHLLEMLIQLPANSVTKVSIQFERALLKWTEYTPDPNHGFYVSPSVLSALVPSMVAAKPVDWEESPLFNSLFPVSDGSNYFVRLYTEPLLVNLPTPDFSMPYNVICLTCTVVAVCYGSFYNLLTRTFHIEEPRTGGLAKRLANLIRRARGVPPL
[2]
  enzymatic_activity: no change

B3: PIGT: N291Q (protein)
parent chain: B2 parent chain
[2]
  enzymatic_activity: no change

B4: PIGT: N327Q (protein)
parent chain: B2 parent chain
[2]
  enzymatic_activity: no change

B5: PIGS: N267Q (protein)
parent chain: MAAAGAAATHLEVARGKRAALFFAAVAIVLGLPLWWKTTETYRASLPYSQISGLNALQLRLMVPVTVVFTRESVPLDDQEKLPFTVVHEREIPLKYKMKIKCRFQKAYRRALDHEEEALSSGSVQEAEAMLDEPQEQAEGSLTVYVISEHSSLLPQDMMSYIGPKRTAVVRGIMHREAFNIIGRRIVQVAQAMSLTEDVLAAALADHLPEDKWSAEKRRPLKSSLGYEITFSLLNPDPKSHDVYWDIEGAVRRYVQPFLNALGAAGNFSVDSQILYYAMLGVNPRFDSASSSYYLDMHSLPHVINPVESRLGSSAASLYPVLNFLLYVPELAHSPLYIQDKDGAPVATNAFHSPRWGGIMVYNVDSKTYNASVLPVRVEVDMVRVMEVFLAQLRLLFGIAQPQLPPKCLLSGPTSEGLMTWELDRLLWARSVENLATATTTLTSLAQLLGKISNIVIKDDVASEVYKAVAAVQKSAEELASGHLASAFVASQEAVTSSELAFFDPSLLHLLYFPDDQKFAIYIPLFLPMAVPILLSLVKIFLETRKSWRKPEKTD
[3]
  enzymatic_activity: no change

B6: PIGS: N370Q (protein)
parent chain: B5 parent chain
[3]
  enzymatic_activity: no change
